Test results reported in PMC4722120, “Overexpression of a Stress-Responsive NAC Transcription Factor Gene ONAC022 Improves Drought and Salt Tolerance in Rice”.

T1: GST-ONAC022 (Oryza sativa (rice), UniProt Q10S65 1-316)
T1 sequence: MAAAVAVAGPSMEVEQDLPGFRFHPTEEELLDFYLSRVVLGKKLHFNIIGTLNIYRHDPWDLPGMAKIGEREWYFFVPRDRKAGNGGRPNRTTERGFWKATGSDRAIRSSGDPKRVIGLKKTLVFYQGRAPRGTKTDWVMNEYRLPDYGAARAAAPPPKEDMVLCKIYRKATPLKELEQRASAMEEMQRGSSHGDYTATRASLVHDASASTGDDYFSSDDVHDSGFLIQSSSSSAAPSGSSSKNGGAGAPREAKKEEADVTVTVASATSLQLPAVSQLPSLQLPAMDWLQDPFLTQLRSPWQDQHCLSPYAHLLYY


Key:
GST-ONAC022 [1] = target: T1, GST-ONAC022; assay: EMSA; 10 uL with 5x EMSA buffer (Beyotime chemiluminescent EMSA kit), 2 ug protein, 1 uL biotin probe; competitor preincubated 20 min; 8% native PAGE; salt, pH and temperature not stated; settings: protein: recombinant; tags: N-terminal GST (pGEX-6p-1); chain copies: 2; blunt
GST-ONAC022 [2] = target: T1, GST-ONAC022; assay: EMSA; self-competition by 200x unlabeled wNACRS attenuates the shift; 10 uL with 5x EMSA buffer (Beyotime chemiluminescent EMSA kit), 2 ug protein, 1 uL biotin probe; competitor preincubated 20 min; 8% native PAGE; salt, pH and temperature not stated; settings: protein: recombinant; tags: N-terminal GST (pGEX-6p-1); chain copies: 2; blunt

| Binder | binding result (GST-ONAC022 [1]) | binding result (GST-ONAC022 [2]) |
| --- | --- | --- |
| mNACRS (dsDNA) DNA 1: ATCGAAAAAAGAGAAAAGAGAAAATTTT DNA 2: AAAATTTTCTCTTTTCTCTTTTTTCGAT | no binding | – |
| wNACRS (dsDNA) DNA 1: ATCGCATGTGGAGCACGGAGCACGTTTT DNA 2: AAAACGTGCTCCGTGCTCCACATGCGAT | – | binds |
